Target: T7-tagged tyrosine kinase Etk (UniProt P51813)
Sequence (P51813 whole entry): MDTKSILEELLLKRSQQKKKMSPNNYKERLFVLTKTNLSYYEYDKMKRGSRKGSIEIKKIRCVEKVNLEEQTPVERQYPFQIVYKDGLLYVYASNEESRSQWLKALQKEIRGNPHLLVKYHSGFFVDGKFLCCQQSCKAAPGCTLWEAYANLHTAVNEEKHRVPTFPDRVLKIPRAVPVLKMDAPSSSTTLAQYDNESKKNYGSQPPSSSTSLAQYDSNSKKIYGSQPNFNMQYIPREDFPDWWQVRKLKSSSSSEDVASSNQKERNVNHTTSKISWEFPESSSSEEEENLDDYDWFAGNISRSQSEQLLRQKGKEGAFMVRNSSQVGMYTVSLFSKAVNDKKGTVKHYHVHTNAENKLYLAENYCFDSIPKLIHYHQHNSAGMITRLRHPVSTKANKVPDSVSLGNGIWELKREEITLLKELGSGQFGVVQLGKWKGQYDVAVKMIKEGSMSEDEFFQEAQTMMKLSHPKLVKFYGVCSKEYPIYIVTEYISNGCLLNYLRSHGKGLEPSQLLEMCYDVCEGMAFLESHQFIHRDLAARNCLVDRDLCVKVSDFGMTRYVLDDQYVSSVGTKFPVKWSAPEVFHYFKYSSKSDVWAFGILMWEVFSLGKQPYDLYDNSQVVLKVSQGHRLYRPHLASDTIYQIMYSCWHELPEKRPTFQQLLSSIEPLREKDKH

Sequence of Flag-tagged human 44 kD Pim-1 (Pim-1L) (chain, as listed by the source): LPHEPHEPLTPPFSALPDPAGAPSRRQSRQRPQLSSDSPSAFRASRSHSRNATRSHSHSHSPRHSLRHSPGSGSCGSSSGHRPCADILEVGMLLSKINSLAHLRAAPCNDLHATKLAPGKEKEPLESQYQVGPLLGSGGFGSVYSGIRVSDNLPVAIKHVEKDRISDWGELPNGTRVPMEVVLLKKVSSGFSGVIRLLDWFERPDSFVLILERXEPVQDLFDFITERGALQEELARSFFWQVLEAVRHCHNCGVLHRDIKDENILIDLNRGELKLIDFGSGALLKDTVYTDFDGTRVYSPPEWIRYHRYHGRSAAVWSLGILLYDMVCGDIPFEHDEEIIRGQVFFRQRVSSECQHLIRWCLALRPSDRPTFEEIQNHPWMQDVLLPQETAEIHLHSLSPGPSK
Sequence of Flag-tagged Pim-1LΔP (Pim-1L with the first 15 amino acids deleted) (chain, as listed by the source mutant): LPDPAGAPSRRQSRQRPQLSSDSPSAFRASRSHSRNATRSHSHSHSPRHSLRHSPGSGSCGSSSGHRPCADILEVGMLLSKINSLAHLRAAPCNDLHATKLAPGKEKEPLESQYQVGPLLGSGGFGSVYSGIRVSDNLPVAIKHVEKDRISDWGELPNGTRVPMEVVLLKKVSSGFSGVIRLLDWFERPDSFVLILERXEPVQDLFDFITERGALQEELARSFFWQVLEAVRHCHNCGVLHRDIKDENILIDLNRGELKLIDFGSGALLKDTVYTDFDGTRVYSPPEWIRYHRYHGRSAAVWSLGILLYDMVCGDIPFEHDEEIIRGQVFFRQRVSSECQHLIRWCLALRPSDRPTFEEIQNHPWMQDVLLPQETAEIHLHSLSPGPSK

| Substance | in vitro kinase assay of Etk (tyrosine phosphorylation of the substrate Gab1) | tyrosine phosphorylation of Etk (IP anti-Etk, blot anti-phosphotyrosine) |
| --- | --- | --- |
| Flag-tagged Pim-1LΔP (Pim-1L with the first 15 amino acids deleted) | Deletion of the proline-rich PXXP motifs of Pim-1L (Pim-1LΔP) dramatically diminished its effects on the Etk kinase activity |  |
| Flag-tagged human 44 kD Pim-1 (Pim-1L) | Co-expression of Etk with Pim-1L enhanced the kinase activity of Etk | unexpected robust increase of tyrosine phosphorylation of Etk |

From patent US20100048671
